In the supplement of paper PMC11246515:
± gives the standard deviation of the averaged measurements.

Test: total protein half-life in vivo (active degradation + dilution); higher = more stable protein
[1] = E. coli NCM3722 delta-clpP delta-lon delta-hslV, growth: N-lim chemostat, doubling time 6 h
[2] = E. coli NCM3722 delta-clpP, growth: N-lim chemostat, doubling time 6 h
[3] = E. coli NCM3722 delta-hslV, growth: N-lim chemostat, doubling time 6 h
[4] = E. coli NCM3722 delta-lon, growth: N-lim chemostat, doubling time 6 h
[5] = E. coli NCM3722 delta-smpB, growth: N-lim chemostat, doubling time 6 h
[6] = wild type E. coli NCM3722, growth: C-lim chemostat, doubling time 3 h
[7] = wild type E. coli NCM3722, growth: C-lim chemostat, doubling time 6 h
[8] = wild type E. coli NCM3722, growth: C-lim chemostat, doubling time 12 h
[9] = wild type E. coli NCM3722, growth: N-lim chemostat, doubling time 6 h
[10] = wild type E. coli NCM3722, growth: N-lim chemostat, doubling time 12 h
[11] = wild type E. coli NCM3722, growth: P-lim chemostat, doubling time 6 h
[12] = wild type E. coli NCM3722, growth: P-lim chemostat, doubling time 12 h

MGLMNAFDSQTEDSSPAIGRNLRSRPLARKKLSEMVEEELEQMIRRREFGEGEQLPSERELMAFFNVGRPSVREALAALKRKGLVQINNGERARVSRPSADTIIGELSGMAKDFLSHPGGIAHFEQLRLFFESSLVRYAAEHATDEQIDLLAKALEINSQSLDNNAAFIRSDVDFHRVLAEIPGNPIFMAIHVALLDWLIAARPTVTDQALHEHNNVSYQQHIAIVDAIRRHDPDEADRALQSHLNSVSATWHAFGQTTNKKK [P0A8W0]
total protein half-life in vivo [1]: 5.49 ± 0.12 h
total protein half-life in vivo [2]: 5.05 ± 0.14 h
total protein half-life in vivo [3]: 3.63 ± 0.045 h
total protein half-life in vivo [4]: 4.53 ± 0.93 h
total protein half-life in vivo [5]: 3.48 ± 0.66 h
total protein half-life in vivo [6]: 2.383 ± 0.0064 h
total protein half-life in vivo [7]: 4.17 ± 0.12 h
total protein half-life in vivo [8]: 6.39 ± 0.4 h
total protein half-life in vivo [9]: 3.95 ± 0.16 h
total protein half-life in vivo [10]: 5.27 ± 0.066 h
total protein half-life in vivo [11]: 3.59 ± 0.14 h
total protein half-life in vivo [12]: 6.29 ± 0.19 h

MQFNIPTLLTLFRVILIPFFVLVFYLPVTWSPFAAALIFCVAAVTDWFDGFLARRWNQSTRFGAFLDPVADKVLVAIAMVLVTEHYHSWWVTLPAATMIAREIIISALREWMAELGKRSSVAVSWIGKVKTTAQMVALAWLLWRPNIWVEYAGIALFFVAAVLTLWSMLQYLSAARADLLDQ [P0ABF8]
total protein half-life in vivo [1]: 7.82 h
total protein half-life in vivo [2]: 6.476 ± 0.013 h
total protein half-life in vivo [4]: 5.76 h
total protein half-life in vivo [5]: 5.9 h
total protein half-life in vivo [6]: 3.1 ± 0.097 h
total protein half-life in vivo [7]: 5.64 ± 0.51 h
total protein half-life in vivo [8]: 15.4 h
total protein half-life in vivo [10]: 9.62 ± 4.9 h
total protein half-life in vivo [11]: 6.75 ± 1.5 h
total protein half-life in vivo [12]: 12.1 ± 1.3 h

MKPMHIAMALLSAAMFFVLAGVFMGVQLELDGTKLVVDTASDVRWQWVFIGTAVVFFFQLLRPAFQKGLKSVSGPKFILPAIDGSTVKQKLFLVALLVLAVAWPFMVSRGTVDIATLTMIYIILGLGLNVVVGLSGLLVLGYGGFYAIGAYTFALLNHYYGLGFWTCLPIAGLMAAAAGFLLGFPVLRLRGDYLAIVTLGFGEIVRILLLNNTEITGGPNGISQIPKPTLFGLEFSRTAREGGWDTFSNFFGLKYDPSDRVIFLYLVALLLVVLSLFVINRLLRMPLGRAWEALREDEIACRSLGLSPRRIKLTAFTISAAFAGFAGTLFAARQGFVSPESFTFAESAFVLAIVVLGGMGSQFAVILAAILLVVSRELMRDFNEYSMLMLGGLMVLMMIWRPQGLLPMTRPQLKLKNGAAKGEQA
total protein half-life in vivo [1]: 5.59 ± 2.4 h
total protein half-life in vivo [2]: 6.22 h
total protein half-life in vivo [3]: 5.84 ± 0.34 h
total protein half-life in vivo [4]: 5.83 ± 1.7 h
total protein half-life in vivo [5]: 5.92 ± 1.1 h
total protein half-life in vivo [7]: 5.79 ± 0.64 h
total protein half-life in vivo [8]: 10.7 ± 1.2 h
total protein half-life in vivo [10]: 12.2 h
total protein half-life in vivo [11]: 6.09 ± 0.58 h
total protein half-life in vivo [12]: 10.7 ± 0.3 h

MEKRTPHTRLSQVKKLVNAGQVRTTRSALLNADELGLDFDGMCNVIIGLSESDFYKSMTTYSDHTIWQDVYRPRLVTGQVYLKITVIHDVLIVSFKEK
total protein half-life in vivo [1]: 5.29 h
total protein half-life in vivo [5]: 5 h
total protein half-life in vivo [6]: 3.12 h
total protein half-life in vivo [12]: 13.2 ± 0.69 h

MKAFDLHRMAFDKVPFDFLGEVALRSLYTFVLVFLFLKMTGRRGVRQMSLFEVLIILTLGSAAGDVAFYDDVPMVPVLIVFITLALLYRLVMWLMAHSEKLEDLLEGKPVVIIEDGELAWSKLNNSNMTEFEFFMELRLRGVEQLGQVRLAILETNGQISVYFFEDDKVKPGLLILPSDCTQRYKVVPESADYACIRCSEIIHMKAGEKQLCPRCANPEWTKASRAKRVT
total protein half-life in vivo [1]: 6.22 ± 1.1 h
total protein half-life in vivo [2]: 6.17 h
total protein half-life in vivo [3]: 5.53 h
total protein half-life in vivo [4]: 5.11 ± 0.43 h
total protein half-life in vivo [5]: 5.8 ± 0.11 h
total protein half-life in vivo [7]: > 8 h
total protein half-life in vivo [8]: 11.8 h
total protein half-life in vivo [10]: > 16 h
total protein half-life in vivo [12]: 12.1 ± 0.66 h

MYRIVLGKVSTLSAAPLPPGLREQAPQGPRRERWLAGRALLSHTLSPLPEIIYGEQGKPAFAPEMPLWFNLSHSGDDIALLLSDEGEVGCDIEVIRPRANWRWLANAVFSLGEHAEMDAVHPDQQLEMFWRIWTRKEAIVKQRGGSAWQIVSVDSTYHSSLSVSHCQLENLSLAICTPTPFTLTADSVQWIDSVN
total protein half-life in vivo [1]: 4.86 ± 0.67 h
total protein half-life in vivo [3]: 3.56 ± 0.17 h
total protein half-life in vivo [4]: 3.99 ± 0.64 h
total protein half-life in vivo [5]: 2.53 ± 0.075 h
total protein half-life in vivo [6]: 2.55 ± 0.032 h
total protein half-life in vivo [7]: 4.94 ± 0.18 h
total protein half-life in vivo [8]: 8.278 ± 0.081 h
total protein half-life in vivo [9]: 3.78 ± 0.16 h
total protein half-life in vivo [10]: 6.11 ± 0.44 h
total protein half-life in vivo [11]: 5.86 ± 0.65 h
total protein half-life in vivo [12]: 11.1 ± 2.4 h

MESIQPWIEKFIKQAQQQRSQSTKDYPTSYRNLRVKLSFGYGNFTSIPWFAFLGEGQEASNGIYPVILYYKDFDELVLAYGISDTNEPHAQWQFSSDIPKTIAEYFQATSGVYPKKYGQSYYACSQKVSQGIDYTRFASMLDNIINDYKLIFNSGKSVIPPMSKTESYCLEDALNDLFIPETTIETILKRLTIKKNIILQGPPGVGKTFVARRLAYLLTGEKAPQRVNMVQFHQSYSYEDFIQGYRPNGVGFRRKDGIFYNFCQQAKEQPEKKYIFIIDEINRANLSKVFGEVMMLMEHDKRGENWSVPLTYSENDEERFYVPENVYIIGLMNTADRSLAVVDYALRRRFSFIDIEPGFDTPQFRNFLLNKKAEPSFVESLCQKMNELNQEISKEATILGKGFRIGHSYFCCGLEDGTSPDTQWLNEIVMTDIAPLLEEYFFDDPYKQQKWTNKLLGDS
total protein half-life in vivo [1]: 5.77 ± 0.24 h
total protein half-life in vivo [2]: 3.81 h
total protein half-life in vivo [5]: 4 ± 0.19 h
total protein half-life in vivo [6]: 3.13 ± 0.25 h
total protein half-life in vivo [7]: 6.02 ± 2.1 h
total protein half-life in vivo [8]: 8.15 ± 0.33 h
total protein half-life in vivo [9]: 4.41 ± 0.59 h
total protein half-life in vivo [11]: 5.12 ± 0.74 h
total protein half-life in vivo [12]: 6.46 ± 0.81 h
